Results taken from PMC8893600 (Kidney international, 2021).

Molecular target: p65 protein used for surface plasmon resonance (UniProt Q04206 1-551)
Experiment: SPR

Sequence of p65 protein used for surface plasmon resonance (Q04206 whole entry): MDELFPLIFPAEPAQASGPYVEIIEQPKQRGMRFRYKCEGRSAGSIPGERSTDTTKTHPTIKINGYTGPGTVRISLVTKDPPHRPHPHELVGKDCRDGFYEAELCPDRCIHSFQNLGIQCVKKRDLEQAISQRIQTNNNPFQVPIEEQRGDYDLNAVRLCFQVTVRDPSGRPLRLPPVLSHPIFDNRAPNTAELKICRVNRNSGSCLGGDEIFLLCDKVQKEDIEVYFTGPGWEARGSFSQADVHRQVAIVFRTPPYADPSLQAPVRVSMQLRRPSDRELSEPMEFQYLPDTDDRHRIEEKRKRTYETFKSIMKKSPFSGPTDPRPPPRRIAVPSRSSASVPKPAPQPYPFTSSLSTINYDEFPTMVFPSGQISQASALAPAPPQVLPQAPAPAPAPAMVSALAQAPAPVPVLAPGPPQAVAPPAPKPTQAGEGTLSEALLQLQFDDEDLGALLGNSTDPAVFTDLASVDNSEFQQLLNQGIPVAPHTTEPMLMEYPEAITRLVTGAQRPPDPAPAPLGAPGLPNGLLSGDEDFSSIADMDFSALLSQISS

- Kd: 13 nM
B1: ANXA1 protein used for surface plasmon resonance (natural protein, UniProt P04083 1-346, looked up)
chain: MAMVSEFLKQAWFIENEEQEYVQTVKSSKGGPGSAVSPYPTFNPSSDVAALHKAIMVKGVDEATIIDILTKRNNAQRQQIKAAYLQETGKPLDETLKKALTGHLEEVVLALLKTPAQFDADELRAAMKGLGTDEDTLIEILASRTNKEIRDINRVYREELKRDLAKDITSDTSGDFRNALLSLAKGDRSEDFGVNEDLADSDARALYEAGERRKGTDVNVFNTILTTRSYPQLRRVFQKYTKYSKHDMNKVLDLELKGDIEKCLTAIVKCATSKPAFFAEKLHQAMKGVGTRHKALIRIMVSRSEIDMNDIKAFYQKMYGISLCQAILDETKGDYEKILVALCGGN
